Earlier results in article PMC2854688.
Where “and” joins values, the source holds several entries; their conditions need not be identical. Equal values may be shown once.

Assays:
[1] = molecular target: eRF3 PAM2 peptide PAM2 (Homo sapiens) (UniProt P15170)
[2] = molecular target: eRF3 overlapping PAM2 peptide PAM2 (Homo sapiens) (UniProt P15170)

PABPC1 MLLE domain MLLE (from UniProt P11940)
Kd [1]: 3.9 µM and 3.1 µM | Kd [2]: 1.3 µM
